Cross-linked PsbS dimer content relative to total PsbS, total recovery to PsbS dimers, percent of the WT level (% of the WT level) and dimer-to-monomer transition, percent lower than the WT (% lower than WT) data for three molecules are collected here from article PMC11783875.

The target in test [1] is E69QE173Q-PsbS (Arabidopsis thaliana). Nature of the test: cross-linking; isolated thylakoids (60 ug Chl) in the recovery-1 state (darkness after illumination); 0.1 mM DTSSP for 1 min in reaction buffer pH 8.0; SDS-PAGE and western blot with PsbS antibody; densitometry of dimer against total PsbS. For orientation: In western blotting, separated proteins are transferred to a membrane and probed.

Test [2] has the same target. Description: cross-linking; isolated thylakoids (60 ug Chl) in the dark-adapted state; 0.1 mM DTSSP for 1 min in reaction buffer pH 8.0; SDS-PAGE and western blot with PsbS antibody; densitometry of dimer against total PsbS.
For test [3] the target is unchanged. Description: cross-linking; isolated thylakoids (60 ug Chl) in the recovery-2 state (darkness after illumination); 0.1 mM DTSSP for 1 min in reaction buffer pH 8.0; SDS-PAGE and western blot with PsbS antibody; densitometry of dimer against total PsbS.
For test [4] the target is unchanged. Nature of the test: cross-linking; isolated thylakoids (60 ug Chl) in the light state (700 umol photons m^-2 s^-1); 0.1 mM DTSSP for 1 min in reaction buffer pH 8.0; SDS-PAGE and western blot with PsbS antibody; densitometry of dimer against total PsbS.
Test [5] concerns the target H3-PsbS (PsbS with the H3 motif I74, Y75, E76 deleted) (Arabidopsis thaliana) (UniProt Q9XF91). Nature of the test: cross-linking; isolated thylakoids (60 ug Chl) in the recovery-2 state (darkness after illumination); 0.1 mM DTSSP for 1 min in reaction buffer pH 8.0; SDS-PAGE and western blot with PsbS antibody; densitometry of dimer against total PsbS.
For test [6] the target is unchanged. Nature of the test: cross-linking; isolated thylakoids (60 ug Chl) in the light state (700 umol photons m^-2 s^-1); 0.1 mM DTSSP for 1 min in reaction buffer pH 8.0; SDS-PAGE and western blot with PsbS antibody; densitometry of dimer against total PsbS.
Test [7] has as its target T1, PsbS protein (wild type, Arabidopsis thaliana) (Arabidopsis thaliana (endogenous in wild-type thylakoids)), Q9XF91.
T1 chain: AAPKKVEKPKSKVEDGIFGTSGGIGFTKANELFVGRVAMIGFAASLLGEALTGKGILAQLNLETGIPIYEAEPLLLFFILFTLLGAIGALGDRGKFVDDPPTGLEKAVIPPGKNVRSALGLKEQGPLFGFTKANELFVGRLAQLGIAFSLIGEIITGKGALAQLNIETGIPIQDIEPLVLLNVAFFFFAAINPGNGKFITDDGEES
Description: cross-linking; isolated thylakoids (60 ug Chl) in the recovery-1 state (darkness after illumination); 0.1 mM DTSSP for 1 min in reaction buffer pH 8.0; SDS-PAGE and western blot with PsbS antibody; densitometry of dimer against total PsbS. The settings on record: remark: other sources report otherwise.

The target of test [8] is T1, PsbS protein (wild type, Arabidopsis …). Description: cross-linking; isolated thylakoids (60 ug Chl) in the dark-adapted state; 0.1 mM DTSSP for 1 min in reaction buffer pH 8.0; SDS-PAGE and western blot with PsbS antibody; densitometry of dimer against total PsbS. As to conditions: remark: other sources report otherwise.
Test [9] shares this target. Description: cross-linking; isolated thylakoids (60 ug Chl) in the light state (700 umol photons m^-2 s^-1); 0.1 mM DTSSP for 1 min in reaction buffer pH 8.0; SDS-PAGE and western blot with PsbS antibody; densitometry of dimer against total PsbS. As to conditions: remark: other sources report otherwise.
Test [10] has the same target. Nature of the test: cross-linking; isolated thylakoids (60 ug Chl) in the recovery-2 state (darkness after illumination); 0.1 mM DTSSP for 1 min in reaction buffer pH 8.0; SDS-PAGE and western blot with PsbS antibody; densitometry of dimer against total PsbS. The settings on record: remark: other sources report otherwise.

As to E69QE173Q-PsbS (natural protein), the cross-linked PsbS dimer content relative to total PsbS turned out to be 21.4% in test [1], 21.7% in test [2], 25.6% in test [3] and 18.6% in test [4].
In turn, “H3-PsbS (PsbS with the H3 motif I74, Y75, E76 deleted) (from UniProt Q9XF91 60-265) (natural protein)” returned a total recovery to PsbS dimers, percent of the WT level (% of the WT level) in test [5] of 62.6. For the same molecule, the dimer-to-monomer transition, percent lower than the WT (% lower than WT) in test [6] amounted to 50.8.

B1: PsbS protein (wild type, Arabidopsis thaliana), Q9XF91 60-265 (natural protein)
chain: T1 chain
For B1, the cross-linked PsbS dimer content relative to total PsbS in [7] worked out at 39.5%; in test [8], 44.9%; in test [9], 31.7%; in test [10] it was 50.4%.
